Earlier results, collected in PMC8865373.
Read-outs that look alike come from different tables or passages of the source.

What was measured:
CBP TAZ2 TAZ2 [1] = target: CBP TAZ2 TAZ2 (UniProt P45481)
CBP TAZ2 TAZ2 [2] = target: CBP TAZ2 TAZ2 (UniProt P45481); remark: listed apart in the source

CBP TAZ2 TAZ2, sequence (P45481 1764-1855): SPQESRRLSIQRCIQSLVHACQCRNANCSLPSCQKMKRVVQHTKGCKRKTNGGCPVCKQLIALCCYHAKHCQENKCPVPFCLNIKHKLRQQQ
HPV E7, sequence (P03129 whole entry): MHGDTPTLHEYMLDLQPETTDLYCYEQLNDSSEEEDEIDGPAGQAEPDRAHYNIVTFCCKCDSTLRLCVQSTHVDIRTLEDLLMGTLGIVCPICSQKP
p53 AD1 AD1, sequence (P04637 13-37): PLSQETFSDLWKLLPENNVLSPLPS

Substance | Kd (CBP TAZ2 TAZ2 [1]) [µM] | Kd (CBP TAZ2 TAZ2 [2]) [µM]
p53 AD1 AD1 (from UniProt P04637) | 24 | –
HPV E7 (from UniProt P03129) | – | 0.022
